B1: unnamed (parent)
chain 1: GEGQQHHLGGAKQAGDV
chain 2: GTDITNQLTNVTVGIDSGTTVYPHQAGYVKLNYGFSVPNSAVKGDTFKITVPKELNLNGVTSTAKVPPIMAGDQVLANGVIDSDGNVIYTFTDYVNTKDDVKATLTMPAYIDPENVKKTGNVTLATGIGSTTANKTVLVDYEKYGKFYNLSIKGTIDQIDKTNNTYRQTIYVNPSGDNVIAPVLTGNLKPNTDSNALIDQQNTSIKVYKVDNAADLSESYFVNPENFEDVTNSVNITFPNPNQYKVEFNTPDDQITTPYIVVVNGHIDPNSKGDLALRSTLYGYNSNIIWRSMSWDNEVAFNNGSGSGDGIDKPVVP

Variants of B1 are the subject of the experiment. The experiment is described as follows: solid-phase competition (inhibition) assay. The settings on record: with partner chain of the complex shown;; read off a plot.
For the variant chain 1 GEAQQHHLGGAKQAGDV, the response (Absorbance (405 nm)) came out at 0.2.
Regarding chain 1 GEGQQHHLGGAKQAADV, the response (Absorbance (405 nm)) worked out at 0.28.
In the case of chain 1 GAGQQHHLGGAKQAGDV, the response (Absorbance (405 nm)) was found to be 0.21.
Turning to chain 1 GEGQAHHLGGAKQAGDV, the response (Absorbance (405 nm)) was 0.23.
With chain 1 GEGQQHHLGGSKQAGDV, the response (Absorbance (405 nm)) was found to be 0.11.
Consider chain 1 GEGQQHHLGGAKQAGDA, for which the response (Absorbance (405 nm)) was determined as 0.13.
Take chain 1 GEGQQHHLGGAKQSGDV: the response (Absorbance (405 nm)) turned out to be 0.29.
Regarding chain 1 AEGQQHHLGGAKQAGDV, the response (Absorbance (405 nm)) came out at 0.25.
As for chain 1 GEGQQHHLGAAKQAGDV, the response (Absorbance (405 nm)) came out at 0.25.
Consider chain 1 GEGQQHHLAGAKQAGDV, for which the response (Absorbance (405 nm)) turned out to be 0.21.
In the case of chain 1 GEGQQHHLGGAAQAGDV, the response (Absorbance (405 nm)) is 0.23.
For chain 1 GEGQQHHAGGAKQAGDV the value was 0.15; for chain 1 GEGQQHALGGAKQAGDV, 0.28.
Consider chain 1 GEGQQHHLGGAKAAGDV, for which the response (Absorbance (405 nm)) was 0.29.
As for chain 1 GEGAQHHLGGAKQAGDV, the response (Absorbance (405 nm)) came out at 0.2.
As to chain 1 GEGQQAHLGGAKQAGDV, the response (Absorbance (405 nm)) was determined as 0.31.

Values taken from publication PMC2582960, “A Structural Model of the Staphylococcus aureus ClfA–Fibrinogen Interaction Opens New Avenues for the Design of Anti-Staphylococcal Therapeutics” (PLoS Pathogens, 2008).
